The target of the assay is human HER2 (ErbB2) (human) (UniProt P04626). Description: cell-based or functional assay.

“murine monoclonal antibody 4D5 (ATCC CRL 10463)” gave a maximum inhibition of cell proliferation in SK-BR-3 cells of 66%.

For the origin of these results see patent US20020001587A1.
